US10759835B2, “Monomeric streptavidin mutants, methods of using the same and processes of manufacturing proteins” (The Research Foundation for The State University of New York, priority 2016, dated 2020)
Values joined by “and” are separate entries in the source; they are usually repeats but may differ in a detail not shown here. Equal values may be shown once.

Experiments:
[1] = Fluorescence polarization spectroscopy, biotin dissociation rate (koff); format: binding; settings: for t1/2: dissociation half-life t1/2=0.693/koff, biotin-fluorescein; for t1/2 / Koff(×10^−3 min^−1): 37° C.; for Koff(×10^−3 min^−1): dissociation of biotin-fluorescein, excess free biotin 100 μM
Description: FIG. 4. In vitro characterization of purified mSA mutants. a) Stability of mSA-RF and mSA-RWT in PBS was measured by circular dichroism spectroscopy with or without biotin. b) Fluorescence polarization spectroscopy was used to measure the dissociation rate of biotin-fluorescein. The dissociation rate, koff, was computed by fitting normalized fluorescence polarization data, or bound fraction f, to an exponentially decaying function, i.e. ƒ=e^−k^off^*t The measurements were taken at 37° C. c) The equilibrium affinity of binding Kd between mSA-RF and biotin-fluorescein was measured by FP. d) mSA-S25H and mSA-RF were analyzed by size exclusion chromatography to estimate their molecular weights in solution. Each mutant eluted with a retention time that was consistent with monomeric streptavidin. The molecular weight standards (arrows) correspond to 66.0, 29.0, 12.4 and 6.5 kDa from left to right.
The binding of biotinylated fluorescein (bf, AnaSpec) was measured using a microplate reader (SpectraMax® i3 Microplate reader from Molecular Devices) in flat bottom 96 well plates (Sterilin Ltd). To measure Kd, 100 nM bf was first mixed with titrating amounts of mSA in PBS containing 0.1 mg/ml bovine serum albumin (BSA). After overnight incubation at room temperature, the fluorescence polarization values were measured and fit to the quadratic binding equation (Hsu and Park, 2010, J Mol Graph Model, 29, 295-308). To measure the off rate (koff), 10 nM bf was first mixed with 50 nM mSA and incubated for 2 hr to form a biotin-mSA complex. To observe dissociation of bf, excess free biotin was added to a final concentration of 100 μM and recording of fluorescence was started immediately. The intensity of polarized fluorescence was measured at various time points and normalized with respect to the value at t=0 min. The intensities were fit to an exponentially decaying function e^−k^off^*t to compute koff. The dissociation half-life t1/2=0.693/koff.
We measured the biotin dissociation rate of various mSA mutants by fluorescence polarization spectroscopy. Table 2 presents the biotin dissociation rate (koff) of various mutants measured by fluorescence polarization spectroscopy. The S25R mutation lowered koff by nearly 21 fold compared to the original mSA and 3.3 fold compared to the S25H mutant (Table 2, FIG. 4b).

[2] = test system: HEK293 cells displaying biotinylated AP-CFP; assay: Fluorescent labeling of cell surface biotinylated receptor, confocal microscopy; format: cell-based
Description: FIG. 5. Fluorescent labeling of HEK293 cells displaying biotinylated receptor. a) HEK293 cells displaying biotinylated AP-CFP were labeled with Alexa488-conjugated mSA-RWT and imaged by fluorescence microscopy. Fluorescence was filtered for (i) CFP and (ii) Alexa488 and the same field of vision was imaged multiple times at regular intervals to measure the stability of labeling. iii. DIC. mSA-RWT binds only CFP positive cells, indicating high specificity of interaction. b-c) HEK293 displaying unrelated protein fused to CFP b) or untransfected HEK293 c) were treated with purified BirA and then labeled with fluorescent mSA-RWT as in part (a) (i)-(iii) the same as before. d) The captured fluorescence images of mSA-RWT—Alexa488 labeled cells (in jpg format) were loaded into MatLab and the amount of CFP and Alexa488 fluorescence was quantified by summing over pixel values. The fluorescence intensity was normalized with respect to the value at t=0. e) Cells labeled with mSA-RF—EGFP were similarly imaged and analyzed to determine the time dependent loss of mSA labeling.
Adherent HEK293 cells were seeded in a 24 well plate (Becton Dickinson) and grown in DMEM supplemented with 10% FBS and antibiotic/antimycotic (Invitrogen). At 50% confluency, the cells were transfected with a plasmid containing pDisplay-AP-CFP-TM. After 2 days the wells were supplemented with 100 nM purified BirA, 5 mM ATP, and 0.3 mM biotin and the biotinylation reaction was carried out overnight. The following morning, the cells were detached from the wells using EDTA Solution (Versene from Life Technologies), washed with PBS containing 0.1% w/v BSA (PBSF), and fixed in 4% paraformaldehyde solution. Prior to microscopy, cells were labeled with 1 μM mSA-RWT—Alexa488 or 1 μM mSA-RF—EGFP in PBSF for 30 minutes. Excess protein was washed away and cells were switched to PBSF with 0.9 mM biotin. Each sample was mounted on slides and imaged using confocal microscopy. The same field of view was imaged every 10 min for 60 min to quantify fluorescence loss as a function of time. The captured images were analyzed with microscope software (ZEN from Zeiss, and MatLab® from MathWorks).
We tested the use of mSA-RWT or mSA-RF in cell imaging, in which biotinylated proteins on the cell surface were labeled with Alexa488 conjugated mSA-RWT or mSA-RF fused to EGFP, and imaged by fluorescence confocal microscopy. Cell imaging is an important test of whether engineered mutants can specifically interact with biotinylated ligands in a heterogeneous environment, in which other potentially competing interactions can interfere with desired detection. […]
To evaluate the stability of labeling, we imaged the labeled cells repeatedly over 1 hr and quantified the fluorescence intensity of Alexa488 or GFP at regular intervals. […]

[3] = currently available mSA, Lim et al.; cited from earlier work

Row | Molecule | t1/2 [1] | Koff(×10^−3 min^−1) [1] | also measured
1 | mSA-R: monomeric streptavidin mutant SEQ ID NO: 2, S25R (S13R in SEQ ID NO: 1 numbering) (protein, Modified streptavidin) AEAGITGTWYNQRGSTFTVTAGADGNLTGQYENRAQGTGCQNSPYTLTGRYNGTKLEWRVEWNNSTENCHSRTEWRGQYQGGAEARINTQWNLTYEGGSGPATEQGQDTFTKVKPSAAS | 4.62 ± 0.2 h | 2.51 ± 0.11 ×10^−3 min^−1 | fold lowering of koff compared to the S25H mutant [1]: 3.3 fold; fold lowering of koff compared to the original mSA [1]: ~21 fold and 25 fold; t1/2 ([1]; listed as S25R): 4.62 h
2 | mSA-DRF: monomeric streptavidin mutant SEQ ID NO: 9, Q24D, S25R, T48F (protein, Modified streptavidin) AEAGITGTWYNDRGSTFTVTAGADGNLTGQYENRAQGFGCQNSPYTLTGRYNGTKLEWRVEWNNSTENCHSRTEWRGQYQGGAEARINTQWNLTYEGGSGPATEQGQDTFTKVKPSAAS | 0.778 ± 0.0217 h | 14.9 ± 0.41 ×10^−3 min^−1 | 
3 | mSA-ERWT: monomeric streptavidin mutant SEQ ID NO: 10, Q24E, S25R, T48W, E124T (protein, Modified streptavidin) AEAGITGTWYNERGSTFTVTAGADGNLTGQYENRAQGWGCQNSPYTLTGRYNGTKLEWRVEWNNSTENCHSRTEWRGQYQGGAEARINTQWNLTYEGGSGPATTQGQDTFTKVKPSAAS | 1.19 ± 0.0283 h | 9.73 ± 0.24 ×10^−3 min^−1 | 
4 | mSA-DR: monomeric streptavidin mutant SEQ ID NO: 7, Q24D, S25R (protein, modified streptavidin) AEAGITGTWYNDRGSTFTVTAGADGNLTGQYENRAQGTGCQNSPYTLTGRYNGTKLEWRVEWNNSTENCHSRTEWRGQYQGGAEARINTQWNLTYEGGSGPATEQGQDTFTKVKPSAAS | 0.568 ± 0.02 h | 20.3 ± 0.69 ×10^−3 min^−1 | 
5 | mSA-RWT: monomeric streptavidin mutant SEQ ID NO: 4, S25R, T48W, E124T (protein, Modified streptavidin) AEAGITGTWYNQRGSTFTVTAGADGNLTGQYENRAQGWGCQNSPYTLTGRYNGTKLEWRVEWNNSTENCHSRTEWRGQYQGGAEARINTQWNLTYEGGSGPATTQGQDTFTKVKPSAAS | 5.48 ± 0.35 h | 2.11 ± 0.13 ×10^−3 min^−1 | off rate / dissociation half-life compared with another mutant ([1]; result in words): longer than mSA-S25R; Alexa488/GFP fluorescence of labeled cells over time ([2]; after 1 hr, 900 μM biotin in the labeling solution): remained high; labeling of cells displaying biotinylated AP-CFP ([2]; fixed HEK293 cells, 1 μM for 30 minutes): Only CFP positive cells were labeled selectively
6 | mSA-ERF: monomeric streptavidin mutant SEQ ID NO: 8, Q24E, S25R, T48F (protein, Modified streptavidin) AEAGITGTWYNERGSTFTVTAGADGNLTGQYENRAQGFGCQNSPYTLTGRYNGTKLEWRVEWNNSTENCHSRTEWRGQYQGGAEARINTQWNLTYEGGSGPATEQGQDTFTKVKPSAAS | 1.26 ± 0.03 h | 9.15 ± 0.21 ×10^−3 min^−1 | 
7 | mSA-DRWT: monomeric streptavidin mutant SEQ ID NO: 11, Q24D, S25R, T48W, E124T (protein, Modified streptavidin) AEAGITGTWYNDRGSTFTVTAGADGNLTGQYENRAQGWGCQNSPYTLTGRYNGTKLEWRVEWNNSTENCHSRTEWRGQYQGGAEARINTQWNLTYEGGSGPATTQGQDTFTKVKPSAAS | 0.717 ± 0.0233 h | 16.1 ± 0.52 ×10^−3 min^−1 | 
8 | mSA-H: monomeric streptavidin mutant SEQ ID NO: 5, S25H (protein, Modified streptavidin) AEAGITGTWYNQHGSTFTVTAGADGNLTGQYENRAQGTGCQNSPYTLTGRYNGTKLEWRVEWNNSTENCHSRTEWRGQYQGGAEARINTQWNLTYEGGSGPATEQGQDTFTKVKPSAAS | 1.41 ± 0.0517 h | 8.19 ± 0.31 ×10^−3 min^−1 | 
9 | mSA-ER: monomeric streptavidin mutant SEQ ID NO: 6, Q24E, S25R (protein, Modified streptavidin) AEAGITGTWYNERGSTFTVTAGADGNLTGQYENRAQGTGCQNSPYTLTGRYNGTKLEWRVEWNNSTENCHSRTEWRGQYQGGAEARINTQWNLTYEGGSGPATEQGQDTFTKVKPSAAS | 1.14 ± 0.102 h | 10.2 ± 0.91 ×10^−3 min^−1 | 
10 | mSA: engineered monomeric streptavidin, reference sequence SEQ ID NO: 1 (Lim et al. 2013) (protein, monomeric streptavidin) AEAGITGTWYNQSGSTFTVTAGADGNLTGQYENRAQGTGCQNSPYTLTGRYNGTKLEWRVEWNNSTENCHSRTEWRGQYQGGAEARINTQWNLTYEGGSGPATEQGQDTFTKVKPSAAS | 0.183 h | 63 ×10^−3 min^−1 | biotin dissociation koff [3]: 0.00105 s⁻¹; dissociation t1/2 [3]: 0.183 h
